Results from patent US7968762.

Molecular target: human Met receptor (human) (UniProt P08581)
Assay: cell-based or functional assay

UniProt P08581, sequence (P08581 25-1390): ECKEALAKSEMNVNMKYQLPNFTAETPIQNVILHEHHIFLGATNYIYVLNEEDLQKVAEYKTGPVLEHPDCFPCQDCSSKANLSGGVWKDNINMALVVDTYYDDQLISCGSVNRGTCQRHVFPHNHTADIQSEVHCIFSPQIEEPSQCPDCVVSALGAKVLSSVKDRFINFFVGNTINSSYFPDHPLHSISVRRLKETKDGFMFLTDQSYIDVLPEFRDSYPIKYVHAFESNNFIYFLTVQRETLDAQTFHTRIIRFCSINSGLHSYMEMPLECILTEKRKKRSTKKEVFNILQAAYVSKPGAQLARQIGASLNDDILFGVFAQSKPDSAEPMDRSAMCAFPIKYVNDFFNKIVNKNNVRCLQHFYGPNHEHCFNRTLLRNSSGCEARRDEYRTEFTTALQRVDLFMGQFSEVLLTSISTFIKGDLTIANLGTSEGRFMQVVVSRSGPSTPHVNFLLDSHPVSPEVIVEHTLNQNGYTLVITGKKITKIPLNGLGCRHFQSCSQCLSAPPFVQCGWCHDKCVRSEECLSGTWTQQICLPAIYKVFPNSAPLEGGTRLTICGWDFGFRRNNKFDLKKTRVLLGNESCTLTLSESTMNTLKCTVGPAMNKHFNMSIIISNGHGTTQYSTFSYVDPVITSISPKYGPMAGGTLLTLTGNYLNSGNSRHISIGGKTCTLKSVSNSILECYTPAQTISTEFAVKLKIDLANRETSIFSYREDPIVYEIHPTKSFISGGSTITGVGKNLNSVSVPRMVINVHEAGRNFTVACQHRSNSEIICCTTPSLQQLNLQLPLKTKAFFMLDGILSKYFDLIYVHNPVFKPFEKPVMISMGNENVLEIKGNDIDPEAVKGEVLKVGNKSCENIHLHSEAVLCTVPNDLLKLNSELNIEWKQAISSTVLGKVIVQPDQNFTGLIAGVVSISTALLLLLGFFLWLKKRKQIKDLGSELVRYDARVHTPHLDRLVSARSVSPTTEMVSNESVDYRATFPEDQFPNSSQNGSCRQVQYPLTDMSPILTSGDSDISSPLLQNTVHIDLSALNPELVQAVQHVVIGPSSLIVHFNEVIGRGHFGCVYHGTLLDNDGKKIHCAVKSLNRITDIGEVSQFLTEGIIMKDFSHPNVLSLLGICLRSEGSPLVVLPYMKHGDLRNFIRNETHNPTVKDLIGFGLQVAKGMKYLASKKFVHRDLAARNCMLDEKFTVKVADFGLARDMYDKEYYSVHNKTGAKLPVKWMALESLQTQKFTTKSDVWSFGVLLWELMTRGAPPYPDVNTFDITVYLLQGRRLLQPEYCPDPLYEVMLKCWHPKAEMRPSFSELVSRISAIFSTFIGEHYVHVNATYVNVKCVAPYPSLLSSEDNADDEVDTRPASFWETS

In the case of “human hepatocyte growth factor/scatter factor (hHGF/SF) (from UniProt P14210 32-728) (ligand)”, the growth of subcutaneous SK-LMS-1 (high Met) xenografts in hHGF Tg scid mice against control scid mice is reported as 3 fold.
